# Experimental data published in the supplement of paper PMC11246515.
# ± gives the standard deviation of the averaged measurements.
# Assay: total protein half-life in vivo (active degradation + dilution); higher = more stable protein
# [1] = E. coli NCM3722 delta-clpP delta-lon delta-hslV, growth: N-lim chemostat, doubling time 6 h
# [2] = E. coli NCM3722 delta-clpP, growth: N-lim chemostat, doubling time 6 h
# [3] = E. coli NCM3722 delta-hslV, growth: N-lim chemostat, doubling time 6 h
# [4] = E. coli NCM3722 delta-lon, growth: N-lim chemostat, doubling time 6 h
# [5] = E. coli NCM3722 delta-smpB, growth: N-lim chemostat, doubling time 6 h
# [6] = wild type E. coli NCM3722, growth: C-lim chemostat, doubling time 3 h
# [7] = wild type E. coli NCM3722, growth: N-lim chemostat, doubling time 6 h
# [8] = wild type E. coli NCM3722, growth: N-lim chemostat, doubling time 12 h
# [9] = wild type E. coli NCM3722, growth: P-lim chemostat, doubling time 6 h
# [10] = wild type E. coli NCM3722, growth: P-lim chemostat, doubling time 12 h
# [11] = wild type E. coli NCM3722, growth: C-lim chemostat, doubling time 6 h
# [12] = wild type E. coli NCM3722, growth: C-lim chemostat, doubling time 12 h
Sequence,total protein half-life in vivo [1] [h],total protein half-life in vivo [2] [h],total protein half-life in vivo [3] [h],total protein half-life in vivo [4] [h],total protein half-life in vivo [5] [h],total protein half-life in vivo [6] [h],total protein half-life in vivo [7] [h],total protein half-life in vivo [8] [h],total protein half-life in vivo [9] [h],total protein half-life in vivo [10] [h],total protein half-life in vivo [11] [h],total protein half-life in vivo [12] [h]
MSQETPASTTEAQIKNKRRISPFWLLPFIALMIASWLIWDSYQDRGNTVTIDFMSADGIVPGRTPVRYQGVEVGTVQDISLSDDLRKIEVKVSIKSDMKDALREETQFWLVTPKASLAGVSGLDALVGGNYIGMMPGKGKEQDHFVALDTQPKYRLDNGDLMIHLQAPDLGSLNSGSLVYFRKIPVGKVYDYAINPNKQGVVIDVLIERRFTDLVKKGSRFWNVSGVDANVSISGAKVKLESLAALVNGAIAFDSPEESKPAEAEDTFGLYEDLAHSQRGVIIKLELPSGAGLTADSTPLMYQGLEVGQLTKLDLNPGGKVTGEMTVDPSVVTLLRENTRIELRNPKLSLSDANLSALLTGKTFELVPGDGEPRKEFVVVPGEKALLHEPDVLTLTLTAPESYGIDAGQPLILHGVQVGQVIDRKLTSKGVTFTVAIEPQHRELVKGDSKFVVNSRVDVKVGLDGVEFLGASASEWINGGIRILPGDKGEMKASYPLYANLEKALENSLSDLPTTTVSLSAETLPDVQAGSVVLYRKFEVGEVITVRPRANAFDIDLHIKPEYRNLLTSNSVFWAEGGAKVQLNGSGLTVQASPLSRALKGAISFDNLSGASASQRKGDKRILYASETAARAVGGQITLHAFDAGKLAVGMPIRYLGIDIGQIQTLDLITARNEVQAKAVLYPEYVQTFARGGTRFSVVTPQISAAGVEHLDTILQPYINVEPGRGNPRRDFELQEATITDSRYLDGLSIIVEAPEAGSLGIGTPVLFRGLEVGTVTGMTLGTLSDRVMIAMRISKRYQHLVRNNSVFWLASGYSLDFGLTGGVVKTGTFNQFIRGGIAFATPPGTPLAPKAQEGKHFLLQESEPKEWREWGTALPK,6.34 ± 0.49,6.12 ± 0.52,6.516 ± 0.036,6.06 ± 0.19,6.04 ± 0.27,3.01 ± 0.3,6.32 ± 0.48,13.1 ± 0.76,6.43 ± 0.74,13.5 ± 0.26,–,–
MAEKRNIFLVGPMGAGKSTIGRQLAQQLNMEFYDSDQEIEKRTGADVGWVFDLEGEEGFRDREEKVINELTEKQGIVLATGGGSVKSRETRNRLSARGVVVYLETTIEKQLARTQRDKKRPLLHVETPPREVLEALANERNPLYEEIADVTIRTDDQSAKVVANQIIHMLESN [P0A6D7],4.84 ± 0.069,3.45 ± 0.24,2.76 ± 0.24,4.2 ± 0.64,2.69 ± 0.079,2.24 ± 0.27,2.26 ± 0.05,3.61 ± 0.34,2.62 ± 0.12,4.5 ± 0.26,3.989 ± 0.026,5.31 ± 0.22
MAIKLIAIDMDGTLLLPDHTISPAVKNAIAAARARGVNVVLTTGRPYAGVHNYLKELHMEQPGDYCITYNGALVQKAADGSTVAQTALSYDDYRFLEKLSREVGSHFHALDRTTLYTANRDISYYTVHESFVATIPLVFCEAEKMDPNTQFLKVMMIDEPAILDQAIARIPQEVKEKYTVLKSAPYFLEILDKRVNKGTGVKSLADVLGIKPEEIMAIGDQENDIAMIEYAGVGVAMDNAIPSVKEVANFVTKSNLEDGVAFAIEKYVLN [P0A8Y5],4 ± 0.43,3.61 ± 0.23,3.55 ± 0.38,3.69 ± 0.1,3.408 ± 0.021,3.08 ± 0.22,3.52 ± 0.2,5.28 ± 0.29,5.06 ± 0.13,11.4 ± 0.92,5.71 ± 0.32,9.92 ± 0.27
MSKEHTTEHLRAELKSLSDTLEEVLSSSGEKSKEELSKIRSKAEQALKQSRYRLGETGDAIAKQTRVAAARADEYVRENPWTGVGIGAAIGVVLGVLLSRR,5.56 ± 0.57,6.08 ± 0.86,5.45 ± 0.11,6.206 ± 0.014,4.81 ± 0.094,2.81 ± 0.54,5.47 ± 0.066,9.88 ± 0.33,5.55 ± 0.1,10.7 ± 1.2,5.64 ± 0.14,9.35 ± 1.2
MFGYRSNVPKVRLTTDRLVVRLVHDRDAWRLADYYAENRHFLKPWEPVRDESHCYPSGWQARLGMINEFHKQGSAFYFGLFDPDEKEIIGVANFSNVVRGSFHACYLGYSIGQKWQGKGLMFEALTAAIRYMQRTQHIHRIMANYMPHNKRSGDLLARLGFEKEGYAKDYLLIDGQWRDHVLTALTTPDWTPGR [P0A948],4.56 ± 0.93,3.52 ± 0.15,3.89 ± 0.49,4.189 ± 0.017,4.098 ± 0.021,3.07 ± 0.059,3.57 ± 0.065,5.92 ± 0.15,5.38 ± 0.41,–,5.02 ± 0.078,8.98 ± 0.43
MKLVHMASGLAVAIALAACADKSADIQTPAPAANTSISATQQPAIQQPNVSGTVWIRQKVALPPDAVLTVTLSDASLADAPSKVLAQKAVRTEGKQSPFSFVLSFNPADVQPNARILLSAAITVNDKLVFITDTVQPVINQGGTKADLTLVPVQQTAVPVQASGGATTTVPSTSPTQVNPSSAVPAPTQY,4.41 ± 0.88,6.1 ± 0.34,6.08,6.69 ± 0.2,5.23 ± 0.59,3.57 ± 0.22,5.25,9.14 ± 0.82,5.51 ± 0.33,11.8 ± 0.68,5.53 ± 0.0062,11.4 ± 4.4
